Reference: the supplement of paper PMC9112550, “Optimization of the antimicrobial peptide Bac7 by deep mutational scanning” (BMC Biology, 2022)

What follows are sequences tested on Escherichia coli TOP10 (assay: shrunken log2 fold change of peptide-encoding DNA abundance (4.5 h post-induction vs induction); higher = less antimicrobial activity (less host growth inhibition)). Details: time post-induction: 4.5 h; library: site-saturation at positions 5, 18, 19, 20.
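Also: peptides expressed intracellularly from a pBAD plasmid library in pooled LB shake-flask culture, induced with 0.3% L-arabinose, DNA abundance read by NGS, three biological replicates, DESeq2 with apeglm shrinkage.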

| Sequence | shrunken log2 fold change |
| --- | --- |
| RRIRARPPRLPRPRPRPHDEPRP | -0.00385 |
| RRIRHRPPRLPRPRPRPTCQPRP | -0.044 |
| RRIRCRPPRLPRPRPRPSAQPRP | 0.336 |
| RRIRCRPPRLPRPRPRPVHFPRP | 0.128 |
| RRIRQRPPRLPRPRPRPHWWPRP | 0.38 |
| RRIRYRPPRLPRPRPRPPRWPRP | 0.466 |
| RRIRSRPPRLPRPRPRPWWLPRP | 0.0261 |
| RRIRERPPRLPRPRPRPPWRPRP | 0.424 |
| RRIRTRPPRLPRPRPRPCTPPRP | -0.214 |
| RRIRLRPPRLPRPRPRPHQPPRP | 0.18 |
| RRIRARPPRLPRPRPRPGLPPRP | 0.709 |
| RRIRQRPPRLPRPRPRPKMHPRP | 0.127 |
| RRIRERPPRLPRPRPRPLISPRP | -0.0142 |
| RRIRARPPRLPRPRPRPGRWPRP | 0.609 |
| RRIRHRPPRLPRPRPRPLWDPRP | -0.15 |
| RRIRGRPPRLPRPRPRPSTFPRP | 0.112 |
| RRIRMRPPRLPRPRPRPRDIPRP | -0.0288 |
| RRIRQRPPRLPRPRPRPIYVPRP | 0.0693 |
| RRIRLRPPRLPRPRPRPEENPRP | -0.00256 |
| RRIRKRPPRLPRPRPRPCCTPRP | -0.0454 |
| RRIRHRPPRLPRPRPRPHEWPRP | 0.00275 |
| RRIRCRPPRLPRPRPRPQFWPRP | 0.303 |
| RRIRERPPRLPRPRPRPAPEPRP | 0.236 |
| RRIRGRPPRLPRPRPRPETTPRP | 2.32 |
| RRIRTRPPRLPRPRPRPQGNPRP | -0.164 |

| Sequence | shrunken log2 fold change |
| --- | --- |
| RRIRPRPPRLPRPRPRPKIMPRP | -0.437 |
| RRIRLRPPRLPRPRPRPYHLPRP | -0.213 |
| RRIRGRPPRLPRPRPRPMTIPRP | 0.0989 |
| RRIRIRPPRLPRPRPRPQRIPRP | -0.536 |
| RRIRHRPPRLPRPRPRPELVPRP | 0.177 |
| RRIRCRPPRLPRPRPRPKYEPRP | -0.403 |
| RRIRERPPRLPRPRPRPHFGPRP | -0.0492 |
| RRIRLRPPRLPRPRPRPWDVPRP | -0.0498 |
| RRIRRRPPRLPRPRPRPVQFPRP | 0.0855 |
| RRIRDRPPRLPRPRPRPGGDPRP | 0.908 |
| RRIRNRPPRLPRPRPRPWKDPRP | -0.00136 |
| RRIRCRPPRLPRPRPRPCTTPRP | -0.427 |
| RRIRQRPPRLPRPRPRPSQNPRP | -0.383 |
| RRIRARPPRLPRPRPRPFTLPRP | -0.543 |
| RRIRSRPPRLPRPRPRPFKPPRP | -0.297 |
| RRIRFRPPRLPRPRPRPAFEPRP | 0.226 |
| RRIRCRPPRLPRPRPRPYCTPRP | -0.503 |
| RRIRLRPPRLPRPRPRPDRHPRP | -0.279 |
| RRIRKRPPRLPRPRPRPSTRPRP | -0.114 |
| RRIRDRPPRLPRPRPRPCNKPRP | -0.764 |
| RRIRTRPPRLPRPRPRPIAHPRP | 0.00363 |
| RRIRKRPPRLPRPRPRPETIPRP | 0.0906 |
| RRIRKRPPRLPRPRPRPDEQPRP | 2.64 |
| RRIRQRPPRLPRPRPRPLDGPRP | 0.237 |
| RRIRLRPPRLPRPRPRPVQLPRP | 0.0978 |

| Sequence | shrunken log2 fold change |
| --- | --- |
| RRIRYRPPRLPRPRPRPQPSPRP | 0.0385 |
| RRIRNRPPRLPRPRPRPHMKPRP | -0.243 |
| RRIRGRPPRLPRPRPRPWAQPRP | -0.035 |
| RRIRHRPPRLPRPRPRPEHLPRP | 0.0981 |
| RRIRERPPRLPRPRPRPKGYPRP | 0.016 |
| RRIRHRPPRLPRPRPRPMRPPRP | 0.36 |
| RRIRGRPPRLPRPRPRPECQPRP | 0.381 |
| RRIRVRPPRLPRPRPRPQCVPRP | -0.218 |
| RRIRVRPPRLPRPRPRPPWAPRP | 0.537 |
| RRIRERPPRLPRPRPRPSFKPRP | -0.401 |
| RRIRKRPPRLPRPRPRPAMEPRP | 0.0841 |
| RRIRVRPPRLPRPRPRPEFLPRP | 0.0805 |
| RRIRMRPPRLPRPRPRPWEDPRP | -0.0122 |
| RRIRSRPPRLPRPRPRPGISPRP | -0.486 |
| RRIRSRPPRLPRPRPRPDVNPRP | 0.0672 |
| RRIRLRPPRLPRPRPRPLPAPRP | 0.585 |
| RRIRARPPRLPRPRPRPAQLPRP | 0.324 |
| RRIRLRPPRLPRPRPRPVFQPRP | 0.042 |
| RRIRARPPRLPRPRPRPMPDPRP | 0.74 |
| RRIRDRPPRLPRPRPRPHTLPRP | -0.196 |
| RRIRVRPPRLPRPRPRPYIAPRP | -0.608 |
| RRIRERPPRLPRPRPRPWGDPRP | 0.108 |
| RRIRGRPPRLPRPRPRPINPPRP | -0.0416 |
| RRIRSRPPRLPRPRPRPNHCPRP | -0.415 |
| RRIRQRPPRLPRPRPRPTWCPRP | 0.171 |

| Sequence | shrunken log2 fold change |
| --- | --- |
| RRIRIRPPRLPRPRPRPWCIPRP | -0.0951 |
| RRIRRRPPRLPRPRPRPQFMPRP | -0.139 |
| RRIRTRPPRLPRPRPRPQQDPRP | -0.18 |
| RRIRNRPPRLPRPRPRPWDYPRP | -0.0686 |
| RRIRCRPPRLPRPRPRPTCQPRP | 0.00203 |
| RRIRKRPPRLPRPRPRPGEPPRP | 0.305 |
| RRIRFRPPRLPRPRPRPDNPPRP | -0.0747 |
| RRIRMRPPRLPRPRPRPATAPRP | 1.17 |
| RRIRRRPPRLPRPRPRPPVRPRP | 0.437 |
| RRIRNRPPRLPRPRPRPCFKPRP | -0.0138 |
| RRIRFRPPRLPRPRPRPWWSPRP | -0.18 |
| RRIRRRPPRLPRPRPRPNWNPRP | -0.115 |
| RRIRVRPPRLPRPRPRPYNCPRP | -0.432 |
| RRIRIRPPRLPRPRPRPGVVPRP | -0.47 |
| RRIRRRPPRLPRPRPRPQCAPRP | 0.647 |
| RRIRKRPPRLPRPRPRPMMGPRP | -0.0567 |
| RRIRQRPPRLPRPRPRPIGYPRP | -0.0242 |
| RRIRPRPPRLPRPRPRPWDPPRP | -0.0945 |
| RRIRHRPPRLPRPRPRPLCEPRP | 0.197 |
| RRIRGRPPRLPRPRPRPTARPRP | 1.27 |
| RRIRTRPPRLPRPRPRPPMQPRP | 0.0806 |
| RRIRGRPPRLPRPRPRPICEPRP | 0.396 |
| RRIRNRPPRLPRPRPRPSEHPRP | -0.159 |
| RRIRMRPPRLPRPRPRPEKAPRP | 1.52 |
| RRIRGRPPRLPRPRPRPMQYPRP | -0.21 |

| Sequence | shrunken log2 fold change |
| --- | --- |
| RRIRMRPPRLPRPRPRPHRTPRP | -0.177 |
| RRIRMRPPRLPRPRPRPINQPRP | 0.257 |
| RRIRARPPRLPRPRPRPWMGPRP | 0.0382 |
| RRIRWRPPRLPRPRPRPWKYPRP | -0.679 |
| RRIRRRPPRLPRPRPRPTGEPRP | 0.337 |
| RRIRIRPPRLPRPRPRPKFDPRP | -0.18 |
| RRIRIRPPRLPRPRPRPWINPRP | -0.379 |
| RRIRMRPPRLPRPRPRPIMDPRP | -0.133 |
| RRIRRRPPRLPRPRPRPDHNPRP | 0.121 |
| RRIRIRPPRLPRPRPRPCFHPRP | -0.532 |
| RRIRERPPRLPRPRPRPFCMPRP | -0.126 |
| RRIRNRPPRLPRPRPRPFCNPRP | -0.126 |
| RRIRERPPRLPRPRPRPATYPRP | -0.275 |
| RRIRLRPPRLPRPRPRPPNYPRP | -0.23 |
| RRIRQRPPRLPRPRPRPTDTPRP | -0.339 |
| RRIRSRPPRLPRPRPRPRDMPRP | 0.446 |
| RRIRGRPPRLPRPRPRPAADPRP | 2.21 |
| RRIRTRPPRLPRPRPRPLFMPRP | -0.737 |
| RRIRARPPRLPRPRPRPCFPPRP | -0.0469 |
| RRIRFRPPRLPRPRPRPTAMPRP | -0.105 |
| RRIRIRPPRLPRPRPRPILGPRP | -0.0266 |
| RRIRWRPPRLPRPRPRPYCPPRP | -0.441 |
| RRIRTRPPRLPRPRPRPKCIPRP | -0.292 |
| RRIRRRPPRLPRPRPRPAWYPRP | 0.176 |
| RRIRHRPPRLPRPRPRPHESPRP | -0.0218 |

| Sequence | shrunken log2 fold change |
| --- | --- |
| RRIRKRPPRLPRPRPRPSAPPRP | 0.504 |
| RRIRYRPPRLPRPRPRPYMSPRP | -0.00192 |
| RRIRRRPPRLPRPRPRPTAMPRP | 0.78 |
| RRIRQRPPRLPRPRPRPQNNPRP | -0.54 |
| RRIRKRPPRLPRPRPRPYMNPRP | -0.505 |
| RRIRARPPRLPRPRPRPHKHPRP | 0.0909 |
| RRIRKRPPRLPRPRPRPVNWPRP | 0.192 |
| RRIRIRPPRLPRPRPRPLEQPRP | -0.419 |
| RRIRDRPPRLPRPRPRPDLLPRP | 0.106 |
| RRIRWRPPRLPRPRPRPFASPRP | 0.177 |
| RRIRSRPPRLPRPRPRPLDKPRP | -0.233 |
| RRIRHRPPRLPRPRPRPVSVPRP | -0.225 |
| RRIRNRPPRLPRPRPRPFTVPRP | -0.00101 |
| RRIRSRPPRLPRPRPRPMHHPRP | -0.0364 |
| RRIRTRPPRLPRPRPRPQMAPRP | -0.177 |
| RRIRLRPPRLPRPRPRPRMRPRP | 0.667 |
| RRIRRRPPRLPRPRPRPICPPRP | -0.0986 |
| RRIRGRPPRLPRPRPRPQLGPRP | 0.649 |
| RRIRIRPPRLPRPRPRPMRFPRP | -0.0444 |
| RRIRGRPPRLPRPRPRPQVAPRP | 0.34 |
| RRIRMRPPRLPRPRPRPKHYPRP | -0.0523 |
| RRIRDRPPRLPRPRPRPTNAPRP | 0.182 |
| RRIRDRPPRLPRPRPRPSSNPRP | -0.148 |
| RRIRTRPPRLPRPRPRPVDDPRP | -0.018 |
| RRIRNRPPRLPRPRPRPLPKPRP | 0.402 |
